# Substitutions are numbered along the chain they refer to.
# B1: IL1RL2-3 (VHH)
# VHH: EVQLVESGGGLVQPGGSLRLSCAASGRTVSTMGWFRQAPGKEREWVSTITFNGDHTYYADSVKGRFTISADNSKNTAYLQMNSLKPEDTAVYYCAKAYSSSWPYFDYWGQGTLVTVSS
# notes: VHH-Fc based on IgG2 Fc
# B2: IL1RL2-4 (VHH)
# VHH: EVQLVESGGGLVQPGGSLRLSCAASGFILREYNMGWFRQAPGKEREFVAAISPSAFTEYADSVKGRFTISADNSKNTAYLQMNSLKPEDTAVYYCAAANEYWVYVNPNRYTWGQGTLVTVSS
# notes: VHH-Fc based on IgG2 Fc
# B3: IL1RL2-54 (VHH)
# VHH: B2 VHH with F27R, I28Y, L29F, R30S, E31D
# notes: VHH-Fc based on IgG2 Fc
# B4: IL1RL2-14 (VHH)
# VHH: EVQLVESGGGLVQPGGSLRLSCAASGFTFSNYWMGWFRQAPGKEREFVATIPWSGAYTEYADSVKGRFTISADNSKNTAYLQMNSLKPEDTAVYYCAAANEYWVYVNPNRYTWGQGTLVTVSS
# notes: VHH-Fc based on IgG2 Fc
# B5: IL1RL2-8 (VHH)
# VHH: B4 VHH with F29Y, N31S, Y32N, W33Y, T50G, P52S, S54T, G55D
# notes: VHH-Fc based on IgG2 Fc
# B6: IL1RL2-25 (VHH)
# VHH: B4 VHH with F27L, T28P, S30N, Y32V, W33Y, T50A, I51V, P52T
# notes: VHH-Fc based on IgG2 Fc
# B7: IL1RL1-39 (Fc fusion, not shown: a dimerising Fc or GST)
# VHH: EVQLVESGGGLVQPGGSLRLSCAASGGTFSVYAMGWFRQAPGKEREAVASISTSGGSTYYADSVKGRFTISADNSKNTAYLQMNSLKPEDTAVYYCAIGGTLYDRRRFEWGQGTLVTVSS
# notes: VHH-Fc on IgG2 Fc
# B8: IL1RL1-40 (Fc fusion, not shown: a dimerising Fc or GST)
# VHH: EVQLVESGGGLVQPGGSLRLSCAASGRTFSDYVMGWFRQAPGKEREIVAAIAWTGTTDYADSVKGRFTISADNSKNTAYLQMNSLKPEDTAVYYCAARIRGKVTVDNFDYAWGQGTLVTVSS
# notes: VHH-Fc on IgG2 Fc
# B9: IL1RL1-44 (Fc fusion, not shown: a dimerising Fc or GST)
# VHH: EVQLVESGGGLVQPGGSLRLSCAASGDYYAMGWFRQAPGKEREWVSSIGIAGTPTFYADSVKGRFTISADNSKNTAYLQMNSLKPEDTAVYYCAANVGVTGSYEWGQGTLVTVSS
# notes: VHH-Fc on IgG2 Fc
# B10: IL1RL1-45 (Fc fusion, not shown: a dimerising Fc or GST)
# VHH: EVQLVESGGGLVQPGGSLRLSCAASGRTLSSYTMGWFRQAPGKEREFVAGIWSGGYTHYADSVKGRFTISADNSKNTAYLQMNSLKPEDTAVYYCAAVSSNSETFDWGQGTLVTVSS
# notes: VHH-Fc on IgG2 Fc
# B11: IL1RL1-83 (Fc fusion, not shown: a dimerising Fc or GST)
# VHH: B10 VHH with T28S, L29I, S31D
# notes: VHH-Fc on IgG2 Fc
# B12: IL1RL1-46 (Fc fusion, not shown: a dimerising Fc or GST)
# VHH: EVQLVESGGGLVQPGGSLRLSCAASGFTFSDIAMGWFRQAPGKEREFVAAINWSGGSTKYADSVKGRFTISADNSKNTAYLQMNSLKPEDTAVYYCAYSGIGTDWGQGTLVTVSS
# notes: VHH-Fc on IgG2 Fc
# B13: IL1RL1-47 (Fc fusion, not shown: a dimerising Fc or GST)
# VHH: EVQLVESGGGLVQPGGSLRLSCAASGRTFSMGWFRQAPGKEREWVASISTSGSTITPYADSVKGRFTISADNSKNTAYLQMNSLKPEDTAVYYCAAQGSLYDDYDGLPIKYDWGQGTLVTVSS
# notes: VHH-Fc on IgG2 Fc
# B14: IL1RL1-49 (Fc fusion, not shown: a dimerising Fc or GST)
# VHH: EVQLVESGGGLVQPGGSLRLSCAASGRTVTMGWFRQAPGKEREFVAGINWESGSTDYADSVKGRFTISADNSKNTAYLQMNSLKPEDTAVYYCAALALGTDQSSTFDWGQGTLVTVSS
# notes: VHH-Fc on IgG2 Fc
# B15: IL1RL1-54 (Fc fusion, not shown: a dimerising Fc or GST)
# VHH: EVQLVESGGGLVQPGGSLRLSCAASGNIPPINAMGWFRQAPGKEREWVASISTSGSTITPYADSVKGRFTISADNSKNTAYLQMNSLKPEDTAVYYCAARSGWSGQYDWGQGTLVTVSS
# notes: VHH-Fc on IgG2 Fc
# B16: IL1RL1-57 (Fc fusion, not shown: a dimerising Fc or GST)
# VHH: EVQLVESGGGLVQPGGSLRLSCAASGDIGSINSMGWFRQAPGKEREFLASVSWGFGSTYYADSVKGRFTISADNSKNTAYLQMNSLKPEDTAVYYCAVNRLLYYSSGYYQTSVDWGQGTLVTVSS
# notes: VHH-Fc on IgG2 Fc
# B17: IL1RL1-63 (Fc fusion, not shown: a dimerising Fc or GST)
# VHH: EVQLVESGGGLVQPGGSLRLSCAASGRTLSSIYAMGWFRQAPGKEREGVAAIYSGGITTYADSVKGRFTISADNSKNTAYLQMNSLKPEDTAVYYCAAFDGYSGSDWGQGTLVTVSS
# B18: IL1RL1-73 (Fc fusion, not shown: a dimerising Fc or GST)
# VHH: EVQLVESGGGLVQPGGSLRLSCAASGDISSIVAMGWFRQAPGKEREWVSSIGIAGTPTFYADSVKGRFTISADNSKNTAYLQMNSLKPEDTAVYYCAGRSIGVDDMPYVWGQGTLVTVSS
# notes: VHH-Fc on IgG2 Fc
# B19: IL1RL1-78 (Fc fusion, not shown: a dimerising Fc or GST)
# VHH: EVQLVESGGGLVQPGGSLRLSCAASGFTLDDYAMGWFRQAPGKEREEVAAISWIIGSTKYADSVKGRFTISADNSKNTAYLQMNSLKPEDTAVYYCAAIVYEEGVYRWDWGQGTLVTVSS
# notes: VHH-Fc on IgG2 Fc
# B20: IL1RL1-88 (Fc fusion, not shown: a dimerising Fc or GST)
# VHH: EVQLVESGGGLVQPGGSLRLSCAASGRTSHGYGGYGMGWFRQAPGKEREEVAAISSSGSSTVYADSVKGRFTISADNSKNTAYLQMNSLKPEDTAVYYCAAIAYEEGVYRWDWGQGTLVTVSS
# notes: VHH-Fc on IgG2 Fc
# B21: IL1RL1-89 (Fc fusion, not shown: a dimerising Fc or GST)
# VHH: EVQLVESGGGLVQPGGSLRLSCAASGSIYSLVAMGWFRQAPGKEREAVAGIVSGGSTSYADSVKGRFTISADNSKNTAYLQMNSLKPEDTAVYYCAAVGGATTVTASEWDWGQGTLVTVSS
# notes: VHH-Fc on IgG2 Fc
# B22: IL1RL1-91 (Fc fusion, not shown: a dimerising Fc or GST)
# VHH: EVQLVESGGGLVQPGGSLRLSCAASGGTFGSYAMGWFRQAPGKEREGVAAIYTGGITTYADSVKGRFTISADNSKNTAYLQMNSLKPEDTAVYYCAAFDGYSGSDWGQGTLVTVSS
# Target: T1, IL1RL2 over-expressed on Expi293 cells (UniProt Q9HB29 20-575, limits assumed)
# T1 construct: whole, on cells; Target of the flow cytometry assay; MFI ratio is over-expressing cells over parent cells
# T1 sequence (looked up): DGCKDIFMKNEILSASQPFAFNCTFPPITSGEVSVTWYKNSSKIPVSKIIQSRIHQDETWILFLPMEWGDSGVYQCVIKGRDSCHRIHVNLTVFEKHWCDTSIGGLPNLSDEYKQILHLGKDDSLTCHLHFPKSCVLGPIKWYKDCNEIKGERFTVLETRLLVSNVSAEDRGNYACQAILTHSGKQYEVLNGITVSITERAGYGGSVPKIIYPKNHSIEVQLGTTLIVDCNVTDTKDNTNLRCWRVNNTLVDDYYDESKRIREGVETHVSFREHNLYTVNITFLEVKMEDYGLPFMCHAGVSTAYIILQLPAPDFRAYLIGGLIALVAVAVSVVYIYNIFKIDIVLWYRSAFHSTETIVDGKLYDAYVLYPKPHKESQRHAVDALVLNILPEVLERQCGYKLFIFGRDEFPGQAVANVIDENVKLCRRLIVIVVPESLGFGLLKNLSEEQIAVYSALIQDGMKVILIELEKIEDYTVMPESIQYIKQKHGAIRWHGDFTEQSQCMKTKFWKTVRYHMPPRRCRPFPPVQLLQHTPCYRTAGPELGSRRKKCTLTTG
# Assay: flow cytometry, over-expressing Expi293 vs parent cells, 100 nM antibody;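 note: ratio is mean fluorescence intensity on over-expressing Expi293 cells divided by that measured on parental Expi293 cells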
# Experimental: (§1) All incubations and washes were in buffer containing PBS+1% BSA. MFI Ratio is defined by the mean fluorescence intensity (MFI) of the cytokine over-expressing Expi293 cell over the Expi293 parent cell. […] EC50 was calculated in GraphPad Prism.
row,Binder,100 nM FACS (MFI Ratio)
1,B1,1.97
2,B2,15.7
3,B3,21.1
4,B4,42.1
5,B5,12.8
6,B6,16.5

# Target: T2, IL1RL1 (UniProt Q01638 19-328, limits assumed)
# T2 construct: SPR analyte
# T2 sequence (looked up): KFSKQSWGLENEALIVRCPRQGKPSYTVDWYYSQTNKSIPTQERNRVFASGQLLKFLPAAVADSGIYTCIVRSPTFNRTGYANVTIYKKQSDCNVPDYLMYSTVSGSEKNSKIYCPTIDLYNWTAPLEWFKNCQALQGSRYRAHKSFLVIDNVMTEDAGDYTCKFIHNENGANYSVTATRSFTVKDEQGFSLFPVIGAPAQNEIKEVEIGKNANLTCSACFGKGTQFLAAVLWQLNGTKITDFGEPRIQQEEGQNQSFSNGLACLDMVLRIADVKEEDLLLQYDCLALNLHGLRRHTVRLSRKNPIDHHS
# Assay: SPR (Carterra LSA), antibody amine-coupled, 1:1 model;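 note: HC30M sensor chip at 25 °C in HBS-TE, analyte at rising concentrations in buffer containing 0.5 mg/mL BSA, 5 min association then 15 min dissociation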
# Experimental: SPR experiments were performed on a Carterra LSA SPR biosensor equipped with a HC30M chip at 25° C. in HBS-TE. Antibodies were diluted to 10 μg/mL and amine-coupled to the sensor chip by EDC/NHS activation, followed by ethanolamine HCl quenching. Increasing concentrations of analyte were flowed over the sensor chip in HBS-TE with 0.5 mg/mL BSA with 5-minute association and 15-minute dissociation. Following each injection cycle the surface was regenerated with 2× 30-second injections of IgG elution buffer (Thermo). Data were analyzed in Carterra's Kinetics Tool software with 1:1 binding model.
Binder,Kd [nM],koff [s⁻¹],kon [M⁻¹ s⁻¹]
B7,0.688,5.5e-05,80000
B8,7.31,0.00116,159000
B9,≤ 0.016,≤ 1e-05,626000
B10,1.19,0.000326,275000
B11,1.2,0.00016,134000
B12,3.06,0.000553,181000
B13,4.73,0.00031,65600
B14,2.42,0.000673,277000
B15,0.516,9.06e-05,176000
B16,1.73,0.000364,211000
B17,0.153,3.16e-05,207000
B18,2.06,0.000362,176000
B19,1.36,0.000278,204000
B20,0.529,0.000104,197000
B21,0.781,0.000388,496000
B22,1.85,0.000261,141000

# Target: T3, IL1RL1 over-expressed on Expi293 cells (UniProt Q01638 19-556, limits assumed)
# T3 construct: whole, on cells; Target of the flow cytometry MFI ratio (over-expressing cells over parent cells); also called cytokine over-expressing Expi293 cells
# T3 sequence (looked up): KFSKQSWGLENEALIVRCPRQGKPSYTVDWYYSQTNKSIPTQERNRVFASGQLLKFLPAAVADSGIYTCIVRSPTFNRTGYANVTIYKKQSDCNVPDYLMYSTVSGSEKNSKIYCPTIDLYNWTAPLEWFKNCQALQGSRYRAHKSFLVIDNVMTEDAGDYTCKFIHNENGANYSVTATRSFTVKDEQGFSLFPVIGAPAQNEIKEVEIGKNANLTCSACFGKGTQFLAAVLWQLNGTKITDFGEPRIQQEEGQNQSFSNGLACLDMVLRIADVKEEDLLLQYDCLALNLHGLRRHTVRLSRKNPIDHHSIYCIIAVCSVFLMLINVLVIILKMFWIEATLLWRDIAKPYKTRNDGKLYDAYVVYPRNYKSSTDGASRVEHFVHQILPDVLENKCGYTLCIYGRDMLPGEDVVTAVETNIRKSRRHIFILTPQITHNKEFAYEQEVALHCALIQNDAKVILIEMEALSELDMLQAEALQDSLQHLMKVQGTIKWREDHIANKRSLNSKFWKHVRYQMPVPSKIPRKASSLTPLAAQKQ
# Assay: flow cytometry, 100 nM antibody, over-expressing Expi293 / parent cells
# Experimental: as §1
row,Binder,100 nM FACS (MFI Ratio) [MFI ratio]
1,B7,267
2,B8,415
3,B9,448
4,B10,704
5,B11,628
6,B12,300
7,B13,467
8,B14,248
9,B15,500
10,B16,282
11,B17,451
12,B18,463
13,B19,475
14,B20,339
15,B21,340
16,B22,475

# — patent US20230265179A1 (TWIST BIOSCIENCE, published 2023)
